Reference: patent US20230383245A1, “CULTURE MEDIUM COMPOSITION” (NISSAN CHEMICAL CORPORATION, priority 2014, published 2023)

Experiment: Viscosity measurement and state of medium composition (E type viscometer)
Format: physicochemical
Procedure: Deacylated gellan gum (KELCOGEL CG-LA, manufactured by SANSHO Co., Ltd.) was suspended in pure water to 0.4% (w/v), and dissolved by stirring with heating at 90° C. This aqueous solution was allowed to cool to room temperature with stirring, and sterilized at 121° C. for 20 min in an autoclave. A 2-fold concentration of DMEM/F-12 medium (manufactured by Aldrich, 50 mL) and sterilization water (47.5 mL) were placed in a 300 mL tall beaker with stirring by a homomixer (3000 rpm) at room temperature, aqueous deacylated gellan gum solution (2.5 mL) was added, and the mixture was continuously stirred for 1 min to prepare a deacylated gellan gum medium composition with a final concentration of 0.01%. Medium compositions added with aqueous deacylated gellan gum solution with final concentrations of 0.02, 0.03 and 0.05% (w/v) were similarly prepared. The viscosity of the medium compositions was measured using an E type viscometer (manufactured by Toki Sangyo Co., Ltd., Viscometer TVE-22 L, standard roter 1°34′×R24) under 37° C. condition at 100 rpm for 5 min.
The medium compositions prepared above were subjected to a suspension test of HeLa cell spheres and a viscosity measurement, in the same manner as with the deacylated gellan gum-containing medium. The viscosity of 1.0% (w/v) methylcellulose was measured at 50 rpm due to the measurement range of the apparatus.
In the same manner as in Reference Experimental Example 2, spheres of HeLa cells were formed, and several tens of the spheres were added to each medium (1 mL) prepared above, the mixture was stood still at 37° C. for 1 hr, and the suspended state of the sphere cells was visually observed. […] Furthermore, it was confirmed that addition of an equal amount of the medium to the cell suspension and centrifugation (300 to 400G, for 5 min) thereof result in sedimentation and recovery of the spheres of HeLa cells.
By a method similar to that for the polysaccharide mixture of Reference Experimental Example 9, DMEM/F-12 media containing deacylated gellan gum at a final concentration of 0.005, 0.01% (w/v) and other polysaccharide were prepared. The final concentration of polysaccharide was set to 0.1% (w/v) for xanthan gum, sodium alginate, locust bean gum, 0.2% (w/v) for methylcellulose, and 0.05% (w/v) for K-carageenan and diutan gum. The state of each medium composition and the viscosity measured by a method similar to that in Analysis Example 1 are shown in Tables 11-16.

For collagen, which state (concentration 0.01 %(w/v) in DMEM/F-12) is on record?
Its state is “liquid”.

And the viscosity (concentration 0.01 %(w/v) in DMEM/F-12, 37° C., 100 rpm)?
Its viscosity is 1.18 mPa · s.

What about the state (concentration 0.05 %(w/v) in DMEM/F-12) of the same substance?
The state was “liquid/solid (gel)”.

And the state (concentration 0.1 %(w/v) in DMEM/F-12)?
Its state is “solid (gel)”.

What about the state (concentration 0.2 %(w/v) in DMEM/F-12) of the same substance?
The state was “solid (gel)”.
